Reference: patent US20240376151A1, “STAPLED PEPTIDES AND METHODS THEREOF” (FOG PHARMACEUTICALS, INC., priority 2022, published 2024)
Numbered stars: 1 amine (or outer) side, 2 acyl side, 3 side chain; on linkers, the order of the positions; unused ones are H or OH. Bridge positions count the residues as written; N and C are the ends. Ends that are not written are not given here. Phenylene(1,4-NHCOCH2)2 = O=C(C[*:1])Nc1ccc(NC(=O)C[*:2])cc1

Target: T1, MDM2 (Homo sapiens, UniProt Q00987)
T1 construct: made in house
T1 sequence (Q00987 25-109): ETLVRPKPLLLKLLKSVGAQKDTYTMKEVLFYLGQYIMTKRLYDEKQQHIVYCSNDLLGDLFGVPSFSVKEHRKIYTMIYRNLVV
Assay: Naive Library Presenter Screening (phage, NGS), MDM2
Format: binding
Conditions: for interaction data, BLANK: Blank = Media only

[1] = MDM2 clusters (C82, C85), first column
[2] = MDM2 clusters (C82, C85), second column
[3] = MDM2 clusters (C82, C85), target concentration 10 nM
[4] = MDM2 clusters (C82, C85), target concentration 30 nM
[5] = MDM2 clusters (C82, C85), target concentration 100 nM
[6] = MDM2 clusters (C82, C85), target concentration 300 nM
[7] = MDM2 clusters (C82, C85), target concentration 1000 nM, first column
[8] = MDM2 clusters (C82, C85), target concentration 1000 nM, second column
[9] = MDM2 target concentration 10 nM
[10] = MDM2 target concentration 30 nM
[11] = MDM2 target concentration 100 nM
[12] = MDM2 target concentration 300 nM
[13] = MDM2 target concentration 1000 nM, first column
[14] = MDM2 target concentration 1000 nM, second column

Row | Sequence | interaction data, BLANK [1] | interaction data, BLANK [2] | interaction data at Target Concentration 10 [3] | interaction data at Target Concentration 30 [4] | interaction data at Target Concentration 100 [5] | interaction data at Target Concentration 300 [6] | interaction data at Target Concentration 1000 [7] | interaction data at Target Concentration 1000 [8] | interaction data at Target Concentration 10 [9] | interaction data at Target Concentration 30 [10] | interaction data at Target Concentration 100 [11] | interaction data at Target Concentration 300 [12] | interaction data at Target Concentration 1000 [13] | interaction data at Target Concentration 1000 [14]
1 | DPAMSNCFMAAWECLIQ (linker 7-14 via Phenylene(1,4-NHCOCH2)2 (inferred); not fully specified (C-terminus)) | 0 | 0 | 49 | 104 | 206 | 192 | 185 | 176 | – | – | – | – | – | –
2 | DPANHACFQAAWDCQFF (linker 7-14 via Phenylene(1,4-NHCOCH2)2 (inferred)) | – | – | – | – | – | – | – | – | 11 | 154 | 643 | 1045 | 776 | 1088
3 | DPAQEDCHAAAFWCIWD (DPAQEDCHAAAFWCIWD-NH2; linker 7-14 via Phenylene(1,4-NHCOCH2)2 (inferred)) | 0 | 0 | 0 | 0 | 15 | 37 | 23 | 48 | – | – | – | – | – | –
4 | DPAQHHCQQAAFWCQWW (DPAQHHCQQAAFWCQWW-NH2; linker 7-14 via Phenylene(1,4-NHCOCH2)2 (inferred)) | 0 | 0 | 0 | 0 | 13 | 13 | 36 | 18 | – | – | – | – | – | –
5 | DPAQQDCFLAAWDCVWQ (DPAQQDCFLAAWDCVWQ-NH2; linker 7-14 via Phenylene(1,4-NHCOCH2)2 (inferred)) | 0 | 0 | 0 | 12 | 132 | 166 | 104 | 237 | – | – | – | – | – | –
6 | DPAQSDCFQAAWECVAN (DPAQSDCFQAAWECVAN-NH2; linker 7-14 via Phenylene(1,4-NHCOCH2)2 (inferred)) | 0 | 0 | 0 | 0 | 35 | 47 | 52 | 29 | – | – | – | – | – | –
7 | DPARLRCQDAAFACMWY (DPARLRCQDAAFACMWY-NH2; linker 7-14 via Phenylene(1,4-NHCOCH2)2 (inferred)) | 0 | 0 | 0 | 0 | 17 | 31 | 32 | 37 | – | – | – | – | – | –
8 | DPARQDCFSAAWMCMAI (DPARQDCFSAAWMCMAI-NH2; linker 7-14 via Phenylene(1,4-NHCOCH2)2 (inferred)) | 0 | 0 | 0 | 1 | 94 | 107 | 120 | 114 | – | – | – | – | – | –
9 | DPARRECMDAAFWCQWV (DPARRECMDAAFWCQWV-NH2; linker 7-14 via Phenylene(1,4-NHCOCH2)2 (inferred)) | 0 | 0 | 0 | 53 | 106 | 232 | 148 | 261 | – | – | – | – | – | –
10 | DPARVHCNQAAFMCHWV (DPARVHCNQAAFMCHWV-NH2; linker 7-14 via Phenylene(1,4-NHCOCH2)2 (inferred)) | 0 | 0 | 0 | 0 | 9 | 6 | 14 | 8 | – | – | – | – | – | –
11 | DPASADCFNAAWDCMWI (DPASADCFNAAWDCMWI-NH2; linker 7-14 via Phenylene(1,4-NHCOCH2)2 (inferred)) | 0 | 0 | 0 | 19 | 102 | 165 | 124 | 209 | – | – | – | – | – | –
12 | DPASAECFFAAWQCIAT (DPASAECFFAAWQCIAT-NH2; linker 7-14 via Phenylene(1,4-NHCOCH2)2 (inferred)) | 0 | 0 | 0 | 8 | 28 | 27 | 33 | 14 | – | – | – | – | – | –
13 | DPASEACFQAAWDCVSW (DPASEACFQAAWDCVSW-NH2; linker 7-14 via Phenylene(1,4-NHCOCH2)2 (inferred)) | – | – | – | – | – | – | – | – | 2 | 57 | 241 | 559 | 336 | 447
14 | DPASQDCFSAAWQCLQT (DPASQDCFSAAWQCLQT-NH2; linker 7-14 via Phenylene(1,4-NHCOCH2)2 (inferred)) | 0 | 0 | 0 | 31 | 138 | 165 | 94 | 231 | – | – | – | – | – | –
15 | DPATESCEDAAFWCHWI (DPATESCEDAAFWCHWI-NH2; linker 7-14 via Phenylene(1,4-NHCOCH2)2 (inferred)) | 0 | 0 | 0 | 0 | 30 | 30 | 30 | 70 | – | – | – | – | – | –
16 | DPATQQCFQAAWDCQFM (linker 7-14 via Phenylene(1,4-NHCOCH2)2 (inferred)) | – | – | – | – | – | – | – | – | 1 | 60 | 324 | 683 | – | 679
17 | DPAVTECFQAAWRCMVM (linker 7-14 via Phenylene(1,4-NHCOCH2)2 (inferred); not fully specified (C-terminus)) | 0 | 0 | 0 | 77 | 184 | 276 | 269 | 268 | – | – | – | – | – | –
18 | DPAYASCFSAAWDCQFW (linker 7-14 via Phenylene(1,4-NHCOCH2)2 (inferred)) | – | – | – | – | – | – | – | – | 0 | 0 | 19 | 21 | 13 | 38
19 | DPAYEDCFFAAWNCMMV (linker 7-14 via Phenylene(1,4-NHCOCH2)2 (inferred)) | 0 | 0 | 0 | 5 | 18 | 17 | 23 | 39 | – | – | – | – | – | –
20 | DPAYSDCFQAAWTCMIH (linker 7-14 via Phenylene(1,4-NHCOCH2)2 (inferred)) | 0 | 0 | 0 | 78 | 135 | 155 | 110 | 150 | – | – | – | – | – | –
21 | DPAYTQCSDAAFMCWWW (linker 7-14 via Phenylene(1,4-NHCOCH2)2 (inferred)) | 0 | 0 | 0 | 19 | 32 | 48 | 65 | 62 | – | – | – | – | – | –
